Three molecules from PMC10511561, “Synergism between CMG helicase and leading strand DNA polymerase at replication fork” (Nature Communications, 2023) can be followed below.

To fix the notation:
B2: Dpb2 (subunit of Polε in the replisome) (natural protein, yeast)
chain: MFGSGNVLPVKIQPPLLRPLAYRVLSRKYGLSIKSDGLSALAEFVGTNIGANWRQGPATIKFLEQFAAVWKQQERGLFIDQSGVKEVIQEMKEREKVEWSHEHPIQHEENILGRTDDDENNSDDEMPIAADSSLQNVSLSSPMRQPTERDEYKQPFKPESSKALDWRDYFKVINASQQQRFSYNPHKMQFIFVPNKKQNGLGGIAGFLPDIEDKVQMFLTRYYLTNDRVMRNENFQNSDMFNPLSSMVSLQNELSNTNRQQQSSSMSITPIKNLLGRDAQNFLLLGLLNKNFKGNWSLEDPSGSVEIDISQTIPTQGHYYVPGCMVLVEGIYYSVGNKFHVTSMTLPPGERREITLETIGNLDLLGIHGISNNNFIARLDKDLKIRLHLLEKELTDHKFVILGANLFLDDLKIMTALSKILQKLNDDPPTLLIWQGSFTSVPVFASMSSRNISSSTQFKNNFDALATLLSRFDNLTENTTMIFIPGPNDLWGSMVSLGASGTLPQDPIPSAFTKKINKVCKNVVWSSNPTRIAYLSQEIVIFRDDLSGRFKRHRLEFPFNESEDVYTENDNMMSKDTDIVPIDELVKEPDQLPQKVQETRKLVKTILDQGHLSPFLDSLRPISWDLDHTLTLCPIPSTMVLCDTTSAQFDLTYNGCKVINPGSFIHNRRARYMEYVPSSKKTIQEEIYI
notes: Dpb2, yeast, subunit of Polε; NTD 12-98, linker 99-156, PDE domain 157-689 as printed; Chain of m2 as it stands in the replisome structure; also called Dpb2-NTD; Dpb2-OB; source: yeast strain yAJ2, purified as part of Polε (calmodulin resin, TEV elution, Mono Q, Superose 6)

Assay in all cases: cryo-EM structure; replisome assembled at room temperature from 0.7 uM CMG, forked DNA and ATPγS, then 1.5 molar excess of Polε, Ctf4, Tof1-Csm3; 100 mM KCl, 25 mM HEPES pH 7.6, 4 mM MgCl2, 4 mM ATPγS; 10-30% glycerol gradient with glutaraldehyde fixation; States I-VI by 3D classification
Conditions in all cases: both partners purified

For one assay, the target named is T1, Mcm4 (subunit of CMG) (yeast, UniProt P30665 1-933).
T1 construct: Mcm4, yeast; Chain of m1 as it stands in the replisome structure; source: yeast strain yJCZ2, purified as part of CMG (anti-FLAG M2 resin, Mono Q, Superose 6)
T1 sequence: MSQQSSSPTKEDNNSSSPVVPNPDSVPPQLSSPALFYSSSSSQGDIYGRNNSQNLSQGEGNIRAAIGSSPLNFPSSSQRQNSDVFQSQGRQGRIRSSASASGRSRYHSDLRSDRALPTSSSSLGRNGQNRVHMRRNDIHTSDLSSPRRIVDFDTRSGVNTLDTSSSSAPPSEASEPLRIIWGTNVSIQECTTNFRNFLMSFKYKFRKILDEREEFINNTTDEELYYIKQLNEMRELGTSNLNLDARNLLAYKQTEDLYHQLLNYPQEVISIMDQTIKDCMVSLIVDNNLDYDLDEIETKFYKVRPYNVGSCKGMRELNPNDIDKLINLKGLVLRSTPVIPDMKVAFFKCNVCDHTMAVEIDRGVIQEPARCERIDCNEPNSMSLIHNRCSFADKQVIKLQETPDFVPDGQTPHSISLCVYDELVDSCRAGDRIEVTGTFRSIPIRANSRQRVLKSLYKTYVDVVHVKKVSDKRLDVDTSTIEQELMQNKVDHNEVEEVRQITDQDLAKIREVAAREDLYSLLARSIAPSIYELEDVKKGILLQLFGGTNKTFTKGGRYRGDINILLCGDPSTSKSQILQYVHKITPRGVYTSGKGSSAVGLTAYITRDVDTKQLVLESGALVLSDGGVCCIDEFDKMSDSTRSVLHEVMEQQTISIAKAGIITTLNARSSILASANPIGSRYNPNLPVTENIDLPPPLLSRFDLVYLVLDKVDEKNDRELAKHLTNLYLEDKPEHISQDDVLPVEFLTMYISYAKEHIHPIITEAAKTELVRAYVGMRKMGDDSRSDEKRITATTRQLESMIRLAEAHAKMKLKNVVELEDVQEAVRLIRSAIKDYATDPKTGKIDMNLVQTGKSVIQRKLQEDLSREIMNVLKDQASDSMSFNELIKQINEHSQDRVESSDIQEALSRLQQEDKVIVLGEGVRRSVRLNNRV

Another assay concerns the target T2, Tof1-Csm3 (yeast, UniProt P53840 1-1238; Q04659 1-317).
T2 construct: Tof1, yeast; Csm3, yeast; Purified beforehand as one complex; also called Tof1 and Csm3; components of the fork protection complex (FPC); source: yeast strain yAE48, galactose-induced, purified (calmodulin resin, TEV elution, Mono Q, Superose 6); not shown: CBP, N-terminal, cleaved

The next assay has as its target T3, Mcm3 (subunit of CMG) (yeast, UniProt P24279 1-971).
T3 construct: Mcm3, yeast; Chain of m1 as it stands in the replisome structure; source: yeast strain yJCZ2, purified as part of CMG (anti-FLAG M2 resin, Mono Q, Superose 6)

A further assay deals with T4, Mcm5 (subunit of CMG) (yeast, UniProt P29496 1-775).
T4 construct: Mcm5, yeast; Chain of m1 as it stands in the replisome structure; also called Mcm5-CTD; Mcm5-WHD; source: yeast strain yJCZ2, purified as part of CMG (anti-FLAG M2 resin, Mono Q, Superose 6)
T4 sequence: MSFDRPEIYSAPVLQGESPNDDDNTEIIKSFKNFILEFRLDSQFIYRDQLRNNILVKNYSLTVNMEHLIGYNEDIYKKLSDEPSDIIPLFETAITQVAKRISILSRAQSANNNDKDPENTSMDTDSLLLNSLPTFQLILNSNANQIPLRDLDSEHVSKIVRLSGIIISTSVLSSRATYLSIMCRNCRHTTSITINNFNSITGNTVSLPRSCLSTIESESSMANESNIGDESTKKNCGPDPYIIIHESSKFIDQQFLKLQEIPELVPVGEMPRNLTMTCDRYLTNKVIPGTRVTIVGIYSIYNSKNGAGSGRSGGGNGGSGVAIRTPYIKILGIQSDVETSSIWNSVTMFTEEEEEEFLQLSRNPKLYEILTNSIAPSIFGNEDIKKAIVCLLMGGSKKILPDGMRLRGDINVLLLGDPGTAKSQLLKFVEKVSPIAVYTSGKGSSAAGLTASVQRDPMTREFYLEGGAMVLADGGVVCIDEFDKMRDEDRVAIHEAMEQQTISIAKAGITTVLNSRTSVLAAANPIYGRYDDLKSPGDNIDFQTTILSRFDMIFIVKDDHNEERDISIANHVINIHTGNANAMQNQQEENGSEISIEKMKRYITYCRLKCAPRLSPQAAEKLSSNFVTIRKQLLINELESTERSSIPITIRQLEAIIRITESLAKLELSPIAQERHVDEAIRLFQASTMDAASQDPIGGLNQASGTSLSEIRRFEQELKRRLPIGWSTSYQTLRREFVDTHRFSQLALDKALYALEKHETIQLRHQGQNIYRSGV

The target of assay [1] is B2.

T3 sequence (P24279 whole entry): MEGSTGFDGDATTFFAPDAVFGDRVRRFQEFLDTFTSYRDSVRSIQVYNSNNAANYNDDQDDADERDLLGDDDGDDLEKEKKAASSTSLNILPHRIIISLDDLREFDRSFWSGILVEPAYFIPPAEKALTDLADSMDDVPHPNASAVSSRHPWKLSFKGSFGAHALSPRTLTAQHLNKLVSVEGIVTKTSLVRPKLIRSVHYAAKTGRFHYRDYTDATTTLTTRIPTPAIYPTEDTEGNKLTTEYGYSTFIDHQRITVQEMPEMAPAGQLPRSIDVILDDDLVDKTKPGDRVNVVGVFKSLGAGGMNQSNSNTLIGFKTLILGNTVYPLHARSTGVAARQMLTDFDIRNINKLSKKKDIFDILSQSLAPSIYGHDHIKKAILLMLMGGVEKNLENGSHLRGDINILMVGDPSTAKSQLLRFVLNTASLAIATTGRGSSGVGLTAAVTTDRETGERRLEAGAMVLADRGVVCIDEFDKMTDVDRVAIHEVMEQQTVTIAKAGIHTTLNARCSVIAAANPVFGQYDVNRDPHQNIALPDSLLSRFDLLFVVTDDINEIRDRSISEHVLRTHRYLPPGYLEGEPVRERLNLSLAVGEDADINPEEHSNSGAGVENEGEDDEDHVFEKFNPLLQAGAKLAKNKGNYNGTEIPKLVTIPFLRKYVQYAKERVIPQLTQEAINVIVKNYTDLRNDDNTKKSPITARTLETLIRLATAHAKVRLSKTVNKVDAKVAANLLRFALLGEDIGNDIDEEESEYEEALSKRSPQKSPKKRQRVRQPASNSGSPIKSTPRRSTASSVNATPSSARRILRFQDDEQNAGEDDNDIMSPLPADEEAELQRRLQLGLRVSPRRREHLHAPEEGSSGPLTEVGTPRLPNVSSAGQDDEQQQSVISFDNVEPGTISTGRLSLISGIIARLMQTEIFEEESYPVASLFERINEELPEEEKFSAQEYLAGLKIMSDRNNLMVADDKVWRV
T2 sequence (P53840 whole entry, chain 1 of 2): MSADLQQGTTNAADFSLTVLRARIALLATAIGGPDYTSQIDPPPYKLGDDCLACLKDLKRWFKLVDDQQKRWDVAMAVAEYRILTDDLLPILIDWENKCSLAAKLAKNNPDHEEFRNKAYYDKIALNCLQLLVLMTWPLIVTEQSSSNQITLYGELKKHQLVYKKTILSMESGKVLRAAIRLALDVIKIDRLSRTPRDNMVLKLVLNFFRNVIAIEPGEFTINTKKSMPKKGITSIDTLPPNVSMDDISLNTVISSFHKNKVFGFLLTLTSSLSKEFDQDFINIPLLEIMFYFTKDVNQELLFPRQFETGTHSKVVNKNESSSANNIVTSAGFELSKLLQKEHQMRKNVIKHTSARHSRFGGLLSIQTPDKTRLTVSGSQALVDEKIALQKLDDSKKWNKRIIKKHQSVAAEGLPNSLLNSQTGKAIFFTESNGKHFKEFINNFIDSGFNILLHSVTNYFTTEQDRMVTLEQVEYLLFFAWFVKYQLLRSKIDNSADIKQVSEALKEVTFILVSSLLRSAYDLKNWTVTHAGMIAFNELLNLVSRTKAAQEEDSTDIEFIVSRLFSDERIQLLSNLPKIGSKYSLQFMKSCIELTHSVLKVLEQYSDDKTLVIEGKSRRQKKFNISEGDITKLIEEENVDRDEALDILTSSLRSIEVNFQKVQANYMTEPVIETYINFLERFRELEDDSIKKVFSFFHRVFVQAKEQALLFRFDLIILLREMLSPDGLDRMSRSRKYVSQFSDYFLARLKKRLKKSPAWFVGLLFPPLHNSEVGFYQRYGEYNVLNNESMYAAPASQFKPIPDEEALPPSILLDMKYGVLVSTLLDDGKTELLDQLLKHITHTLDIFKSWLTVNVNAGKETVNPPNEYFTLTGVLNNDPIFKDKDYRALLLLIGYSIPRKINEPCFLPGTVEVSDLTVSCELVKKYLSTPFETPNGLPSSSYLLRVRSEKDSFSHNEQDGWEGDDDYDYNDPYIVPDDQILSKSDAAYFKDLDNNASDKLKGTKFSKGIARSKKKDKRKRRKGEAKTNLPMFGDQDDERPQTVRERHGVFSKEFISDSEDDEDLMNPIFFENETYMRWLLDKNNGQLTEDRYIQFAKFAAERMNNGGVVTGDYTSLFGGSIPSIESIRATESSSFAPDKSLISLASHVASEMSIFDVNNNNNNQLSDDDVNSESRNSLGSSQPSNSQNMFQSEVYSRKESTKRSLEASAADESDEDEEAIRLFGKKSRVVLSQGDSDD
T2 sequence (Q04659 whole entry, chain 2 of 2): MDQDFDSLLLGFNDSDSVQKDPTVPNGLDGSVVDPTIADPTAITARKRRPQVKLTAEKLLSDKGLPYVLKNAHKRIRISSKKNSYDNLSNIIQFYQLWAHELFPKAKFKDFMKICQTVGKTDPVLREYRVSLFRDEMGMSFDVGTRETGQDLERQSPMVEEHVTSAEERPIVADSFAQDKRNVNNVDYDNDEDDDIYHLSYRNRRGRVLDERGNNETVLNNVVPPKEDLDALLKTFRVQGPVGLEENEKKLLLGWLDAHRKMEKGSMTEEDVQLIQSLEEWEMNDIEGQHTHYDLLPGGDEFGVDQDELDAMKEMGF

B1: Mcm7 (subunit of CMG) (natural protein, yeast)
chain: MSAALPSIQLPVDYNNLFNEITDFLVTFKQDTLSSDATRNENEDENLDAENIEQHLLEKGPKYMAMLQKVANRELNSVIIDLDDILQYQNEKFLQGTQADDLVSAIQQNANHFTELFCRAIDNNMPLPTKEIDYKDDVLDVILNQRRLRNERMLSDRTNEIRSENLMDTTMDPPSSMNDALREVVEDETELFPPNLTRRYFLYFKPLSQNCARRYRKKAISSKPLSVRQIKGDFLGQLITVRGIITRVSDVKPAVEVIAYTCDQCGYEVFQEVNSRTFTPLSECTSEECSQNQTKGQLFMSTRASKFSAFQECKIQELSQQVPVGHIPRSLNIHVNGTLVRSLSPGDIVDVTGIFLPAPYTGFKALKAGLLTETYLEAQFVRQHKKKFASFSLTSDVEERVMELITSGDVYNRLAKSIAPEIYGNLDVKKALLLLLVGGVDKRVGDGMKIRGDINVCLMGDPGVAKSQLLKAICKISPRGVYTTGKGSSGVGLTAAVMKDPVTDEMILEGGALVLADNGICCIDEFDKMDESDRTAIHEVMEQQTISISKAGINTTLNARTSILAAANPLYGRYNPRLSPLDNINLPAALLSRFDILFLMLDIPSRDDDEKLAEHVTYVHMHNKQPDLDFTPVEPSKMREYIAYAKTKRPVMSEAVNDYVVQAYIRLRQDSKREMDSKFSFGQATPRTLLGIIRLSQALAKLRLADMVDIDDVEEALRLVRVSKESLYQETNKSKEDESPTTKIFTIIKKMLQETGKNTLSYENIVKTVRLRGFTMLQLSNCIQEYSYLNVWHLINEGNTLKFVDDGTMDTDQEDSLVSTPKLAPQTTASANVSAQDSDIDLQDA
notes: Mcm7, yeast; Chain of m1 as it stands in the replisome structure; source: yeast strain yJCZ2, purified as part of CMG (anti-FLAG M2 resin, Mono Q, Superose 6)
With B1, the binding result with Mcm4 (subunit of CMG), with Tof1-Csm3 and with Mcm3 (subunit of CMG) was “binds” in each case.
With B2, the binding result in the assay with Mcm5 (subunit of CMG) and in the assay with Mcm3 (subunit of CMG) was “binds” throughout.

B3: Psf1 (subunit of GINS in CMG) (natural protein, yeast)
chain: MYGDLGNKLVLEAKRTKQLYARSNQDVNLPMYHEDIIRNILKEVSNLRKNTEYLKEQQQLGMLDDKVAKCQYFVTLLCMERNKRCLLAYQRLRTDILDSMAWNNNGLDLMSSITFSQQDTNNLSHQEQEYLKEYCDLITDLKSGDLVDIDLSGSLVPPSDVFIDVRVLKDAGEIQTEYGVFNLIKDSQFFVRQSDVERLIQQGYLQKI
notes: Psf1, yeast, subunit of GINS; Chain of m1 as it stands in the replisome structure; also called Psf1 B domain; Psf1-B domain; source: yeast strain yJCZ2, purified as part of CMG (anti-FLAG M2 resin, Mono Q, Superose 6)
Turning to B3, in assay [1], the binding result is listed as “binds”.
